Measured values: article PMC10684895, “The ELAVL3/MYCN positive feedback loop provides a therapeutic target for neuroendocrine prostate cancer”

Target: GST-ELAVL3 (UniProt Q14576 1-367)
Assay: EMSA; 5 mM Mg2+; RNA-EMSA: 20 mM Tris-HCl (pH not stated), 100 mM NaCl, 5 mM MgCl2, 2 mM DTT, 37 C 1 h, 6% native gel at 4 C; pull-down: 50 pmol probe on beads, cell lysate, 4 C overnight
Conditions: protein: recombinant; tags: N-terminal GST (pGEX-4T-1); label: 3'-biotin

Sequence of GST-ELAVL3 (Q14576 whole entry): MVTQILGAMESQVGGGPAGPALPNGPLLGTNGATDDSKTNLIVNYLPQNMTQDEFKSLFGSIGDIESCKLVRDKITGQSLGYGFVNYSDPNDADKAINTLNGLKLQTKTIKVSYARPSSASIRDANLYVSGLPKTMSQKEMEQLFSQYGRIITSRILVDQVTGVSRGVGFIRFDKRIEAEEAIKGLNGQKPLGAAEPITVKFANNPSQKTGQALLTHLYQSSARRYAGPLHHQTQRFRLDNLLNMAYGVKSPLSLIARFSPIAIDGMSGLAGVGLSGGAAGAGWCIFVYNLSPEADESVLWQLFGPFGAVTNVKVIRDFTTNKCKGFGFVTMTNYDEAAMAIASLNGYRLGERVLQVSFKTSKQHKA

**Q.** Does CACUCUGCACAUCCUGAUCUCUCUCUCAGA (ssRNA) [MYCN-3'UTR-F1-MUT] bind?
**A.** no binding

**Q.** Does UCCAUCCUAGACACUACCUCAGUCGACGUA (ssRNA) [RICTOR-3'UTR-F3-MUT] bind?
**A.** no binding
